Assay results: patent US6667173B2, “Nucleic acids encoding platelet derived growth factor-alpha receptors” (The Schepens Eye Research Institute, priority 2000, dated 2003)

Columns and labels:
βPDGFR = molecular target: T1, βPDGFR (Homo sapiens, UniProt P09619); experiment: Tyrosine phosphorylation of the βPDGFR in TGFβ- or PDGF-treated F cells; assay type: cell-based; details: Fβ cells; 1 ng/ml TGFβ1
T1 construct: expressed in transfected cells; host or cells: F cells (mouse embryo fibroblasts lacking both PDGFRs), giving Fβ
T1 sequence (P09619 33-1106): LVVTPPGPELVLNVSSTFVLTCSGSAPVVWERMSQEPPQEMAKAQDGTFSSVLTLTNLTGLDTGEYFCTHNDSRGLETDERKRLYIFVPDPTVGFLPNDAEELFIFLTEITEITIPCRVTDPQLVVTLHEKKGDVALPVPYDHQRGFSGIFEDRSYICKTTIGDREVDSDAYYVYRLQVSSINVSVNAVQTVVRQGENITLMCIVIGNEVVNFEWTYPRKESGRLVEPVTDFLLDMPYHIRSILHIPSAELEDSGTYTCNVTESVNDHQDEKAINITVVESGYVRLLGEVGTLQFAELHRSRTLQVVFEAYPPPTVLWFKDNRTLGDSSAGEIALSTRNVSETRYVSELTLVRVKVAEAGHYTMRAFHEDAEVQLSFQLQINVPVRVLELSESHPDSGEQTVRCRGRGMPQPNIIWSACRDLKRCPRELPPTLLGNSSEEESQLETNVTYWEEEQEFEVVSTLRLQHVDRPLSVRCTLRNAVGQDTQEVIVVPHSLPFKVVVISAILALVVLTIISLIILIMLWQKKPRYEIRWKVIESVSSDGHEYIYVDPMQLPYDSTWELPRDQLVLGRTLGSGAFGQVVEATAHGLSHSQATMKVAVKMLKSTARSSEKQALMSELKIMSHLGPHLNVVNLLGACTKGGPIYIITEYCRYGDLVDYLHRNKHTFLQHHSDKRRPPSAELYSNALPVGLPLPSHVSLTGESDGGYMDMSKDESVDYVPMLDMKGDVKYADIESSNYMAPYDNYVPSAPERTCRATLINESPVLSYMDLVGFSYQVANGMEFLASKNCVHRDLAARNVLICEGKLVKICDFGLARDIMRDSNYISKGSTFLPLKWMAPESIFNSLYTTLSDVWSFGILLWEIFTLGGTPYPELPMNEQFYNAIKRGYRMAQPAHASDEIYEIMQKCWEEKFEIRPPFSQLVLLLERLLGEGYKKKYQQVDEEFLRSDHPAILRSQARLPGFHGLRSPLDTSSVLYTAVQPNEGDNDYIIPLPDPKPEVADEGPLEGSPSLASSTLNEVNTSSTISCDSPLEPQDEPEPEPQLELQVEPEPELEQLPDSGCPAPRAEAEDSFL

αPDGFR = molecular target: T2, αPDGFR (Homo sapiens, UniProt P16234); experiment: Tyrosine phosphorylation of the αPDGFR in TGFβ- or PDGF-treated F cells; assay type: cell-based; details: Fα cells; 50 ng/ml PDGF-BB 5 minutes or 1 ng/ml TGFβ1 5 minutes to 8 hours
T2 construct: expressed in transfected cells; host or cells: F cells (SV-40 immortalized mouse embryo fibroblasts lacking both PDGFRs), giving Fα
T2 sequence (P16234 24-1089): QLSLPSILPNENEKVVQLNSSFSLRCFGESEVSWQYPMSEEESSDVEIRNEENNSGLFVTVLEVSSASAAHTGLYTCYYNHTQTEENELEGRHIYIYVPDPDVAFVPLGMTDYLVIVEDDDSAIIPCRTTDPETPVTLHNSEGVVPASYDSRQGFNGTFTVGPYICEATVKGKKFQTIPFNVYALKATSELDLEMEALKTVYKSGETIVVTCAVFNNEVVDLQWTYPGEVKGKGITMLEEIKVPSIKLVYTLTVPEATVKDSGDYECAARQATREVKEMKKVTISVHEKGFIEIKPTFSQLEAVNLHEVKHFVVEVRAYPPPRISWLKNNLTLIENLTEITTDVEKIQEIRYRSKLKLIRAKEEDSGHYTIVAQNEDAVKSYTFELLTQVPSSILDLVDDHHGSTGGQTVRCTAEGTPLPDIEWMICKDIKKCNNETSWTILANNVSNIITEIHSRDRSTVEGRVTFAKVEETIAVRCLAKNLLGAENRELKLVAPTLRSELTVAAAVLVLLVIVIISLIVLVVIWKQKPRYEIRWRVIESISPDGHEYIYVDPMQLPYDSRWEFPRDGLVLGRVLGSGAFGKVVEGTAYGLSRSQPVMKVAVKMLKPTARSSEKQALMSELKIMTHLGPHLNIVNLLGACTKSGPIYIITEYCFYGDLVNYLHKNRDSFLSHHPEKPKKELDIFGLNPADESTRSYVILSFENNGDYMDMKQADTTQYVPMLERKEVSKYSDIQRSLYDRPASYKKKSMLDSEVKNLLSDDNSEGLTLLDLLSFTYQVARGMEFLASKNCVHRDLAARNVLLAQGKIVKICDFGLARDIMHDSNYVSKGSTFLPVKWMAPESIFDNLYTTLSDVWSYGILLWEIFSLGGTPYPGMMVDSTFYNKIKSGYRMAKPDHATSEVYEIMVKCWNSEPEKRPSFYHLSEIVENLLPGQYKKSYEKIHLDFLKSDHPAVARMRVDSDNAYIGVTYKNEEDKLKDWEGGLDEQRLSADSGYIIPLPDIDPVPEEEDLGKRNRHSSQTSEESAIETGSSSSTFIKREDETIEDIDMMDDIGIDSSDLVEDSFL
Experimental: To show the effect of TGFβ on αPDGFR, the tyrosine phosphorylation state of the αPDGFR was assayed in TGFβ-treated cells. The F cells with or without PDGFR were grown to 80% confluent and then starved with DMEM containing 1% FBS for 20 hours. Cells were exposed at 37° C. for 5 minutes to either 50 ng/ml of PDGF-BB; with 1 ng/ml of TGFβ1 for 5 minutes, 1 hour, 2 hours, 4 hours, 6 hours or 8 hours; or were left unstimulated. After treatment the cells were washed twice with H/S (20 mM Hepes, pH 7.4, 150 mM NaCl) and then lysed in EB (10 mM Tris-HCl, pH 7.4, 5 mM EDTA, 50 mM NaCl, 50 mM NaF, 1% Triton-X 100, 0.1% BSA, 20 μg/ml aprotinin, 2 mM Na3VO4, 1 mM phenylmethylsulfonyl fluoride; PMSF). Lysates were centrifuged for 15 minutes at 13,000×g, the pellet was discarded and the soluble fraction was used as the total cell lysate. The protein concentration was measured using protein assay kit (Pierce, Rockfield, Ill.) following the manufacture's instructions.
Receptors were immunoprecipitated from the soluble fraction with the 27P antibody (described above). Immune complex was bound to formalin-fixed membranes of Staphylococcus aureus, spun through an EB sucrose gradient, and washed twice with EB, then with PAN (10 mM Pipes, pH 7.0, 100 mM NaCl, 1% aprotinin)+0.5% Nonidet P-40 (NP-40), and finally with PAN. The samples were resuspended in PAN before using for kinase assay or western blotting. […]

FCX^2, Fα and Fβ cells = experiment: Collagen gel contraction assay of cells with no PDGFRs, αPDGFR or βPDGFR; assay type: cell-based, mouse; details: 1 ng/ml TGFβ1; 24, 48, 72 hours
Experimental: The contraction assay was based on a previously described reference, Skuta, G. et al. (1999) J. Biol. Chem. 274:30163, with the following modifications. Fα cells were suspended in 1.5 mg/ml of neutralized collagen I (Cohesion vitrogen 100, Palo Alto, Calif.) at a density of 10^6 cells/ml, and were transferred into the 24-well plate (Falcon, Franklyn Lakes, N.J.) that had been preincubated with phosphate-buffer saline (PBS) with 5 mg/ml of bovine serum albumin (BSA) overnight. The gel was solidified by incubating at 37° C. for 90 minutes, and then the well was flooded with DMEM+5 mg/ml of BSA supplemented with an amount of vitreous such that the final concentration of vitreous in the culture medium was 1, 5 or 20%. […] The media was replaced every 24 hours and the gel diameter was measured after 48 hours. The extent of contraction was calculated by subtracting the diameter of the well at 48 hours from the initial diameter (15 mm). […]
The experiments described in Example 9 (FIG. 7B) were repeated with cells that express the βPDGFR (Fβ) instead of the αPDGFR, or no PDGFRs (FCX^2). Contraction was scored at the 48 hours time point. […]
To more directly test whether TGFβ could moderate contraction of fibroblasts via the αPDGFR, the response of the three cell lines to purified TGFβ was examined. […] The gel diameter was measured after 24, 48, or 72 hours, and the media was replaced every day.

Erk = experiment: PDGF-dependent activation of Erk in NIH 3T3 cells expressing mutant receptors (anti-phospho-Erk western blot); assay type: cell-based, mouse; details: 50 ng/ml PDGF-AA, 5 minutes
Experimental: Cells were stimulated as described in Example 2 and 20 μg of total cell lysate was subjected to western blotting analysis using anti-phospho-Erk or anti-Ras GTP-activating protein antibody as an internal control for the amount of protein. The phospho-extracellular signal related kinase (Erk) rabbit polyclonal antibody was purchased from New England Biolabs (Beverly, Mass.) and used at a dilution of 1:1000.

human αPDGFR = experiment: Tyrosine phosphorylation of the introduced mutant αPDGFR (292 immunoprecipitation from NIH 3T3 cells); assay type: cell-based, mouse; details: 292 antibody IP, RIPA lysis; 50 ng/ml PDGF-AA, 5 minutes
Sequence of human αPDGFR (P16234 24-589 limits assumed): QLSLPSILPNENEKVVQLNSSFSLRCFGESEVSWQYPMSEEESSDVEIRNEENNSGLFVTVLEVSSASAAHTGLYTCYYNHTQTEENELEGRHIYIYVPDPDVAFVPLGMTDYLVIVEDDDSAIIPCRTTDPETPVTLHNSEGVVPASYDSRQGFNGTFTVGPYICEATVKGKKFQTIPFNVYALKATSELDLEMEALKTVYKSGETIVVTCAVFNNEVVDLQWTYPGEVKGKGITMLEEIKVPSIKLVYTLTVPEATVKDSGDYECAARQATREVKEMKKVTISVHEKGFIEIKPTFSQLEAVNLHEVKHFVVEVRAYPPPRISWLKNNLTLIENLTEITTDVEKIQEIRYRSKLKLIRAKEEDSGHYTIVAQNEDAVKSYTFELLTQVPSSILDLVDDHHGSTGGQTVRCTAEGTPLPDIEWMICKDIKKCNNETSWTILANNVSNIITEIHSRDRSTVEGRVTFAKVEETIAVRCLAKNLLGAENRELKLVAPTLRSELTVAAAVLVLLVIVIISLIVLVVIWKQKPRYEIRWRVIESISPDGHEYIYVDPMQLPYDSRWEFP
Excerpt: To characterize the kinase activity of the point mutants, these were immunoprecipitated using the 292 monoclonal antibody, which selectively recognizes an extracellular epitope of the introduced receptor and recognizes all of the mutants used in this study. While PDGF-stimulation is expected to dimerize mutant and wild type receptors, lysing cells in RIPA buffer breaks receptor dimers. Kelly, J. D. et al. (1991) J. Biol. Chem. 266:8987. Consequently, 292 immunoprecipitates are not expected to contain co-immunoprecipitating WT receptor. NIH 3T3 cells expressing the empty vector or receptor mutants were left resting, or stimulated with 50 ng/ml of PDGF-AA for 5 minutes, the cells were lysed in RIPA buffer and the resulting samples were subjected to anti-phosphotyrosine and anti-αPDGFR western blot analysis. In this series of experiments, we included the previously described Fα cell line, which is an NIH 3T3-like cell line that express the introduced human αPDGFR. Andrews, A. et al (1999) Invest. Ophthalmol. Vis. Sci. 40:2683. This cell line was included as a positive control, since the WT receptor in NIH 3T3 cells is mouse, and not recognized by the 292 antibody. As expected, the αPDGFR was immunoprecipitated from the Fα cells, but not the NIH 3T3 cells expressing the empty vector, and PDGF stimulation increased the phosphotyrosine content of the receptor (FIG. 3A). […]

GST-PLCγ = experiment: In vitro kinase assay of immunoprecipitated mutant αPDGFRs with exogenous substrate; assay type: biochemical; details: 292 immunoprecipitates, [32P]-γ ATP, 30° C., 5 min
Experimental: Mutant αPDGFRs were selectively immunoprecipitated with the 292 antibody, and samples representing 2×10^5 cells from 292 antibodies were subjected to an in vitro kinase assay. Immunoprecipitates were preincubated with 2 μg of GST protein for 10 min at 0° C., then 2 μg of Glutathione S-transferase fusion phospholipase C-gamma (GST-PLCγ, an exogenous substrate, 10 μCi of γ-[^32P] ATP (DuPont NEN Research Products, Boston, Mass.), and universal kinase buffer (UKB; 20 mM Pipes, pH 7.0, 10 mM MnCl2, 20 μg/ml aprotinin) were added. The samples were incubated at 30° C. for 5 min. The proteins were separated by 7.5% sodium dodecyl sulfate-polyacrylamide gel electrophoresis (SDS-PAGE), the gel was dried, and the radiolabeled protein was detected by autoradiography.

NIH 3T3 cells = experiment: [3H]-thymidine incorporation (entry into S phase) in NIH 3T3 cells expressing mutant receptors; assay type: cell-based, mouse; details: 10% FBS, 22 hours
Experimental: NIH 3T3 cells expressing either empty vector (EMP) or one of the αPDGFR mutants were trypsinized, resuspended in DMEM with 10% FBS, and plated at a density of 5×10^5 cells/well in 24-well tissue culture plates and cultured overnight. The cells were rinsed twice with phosphate buffered saline (PBS), and serum starved by incubation in 0.5 ml of DMEM with 0.1% FBS and 0.4 mg/ml of bovine serum albumin (BSA; Sigma) for 48 hours. The cells were then exposed to 50 ng/ml of PDGF-AA, 10% Fetal bovine serum (FBS) (v/v), or buffer for 22 hours. The cells were then pulsed for 4 hours in DMEM with 10% FBS containing 0.8 μCi/ml of [^3H]-thymidine (DuPont NEN Research Products). Finally, the cells were washed twice with PBS, and once with 5% trichloro acetic acid, and lysed in 250 μl of 0.25 N NaOH. The lysates were transferred into scintillation tubes containing 50 μl of 6 N HCl, and then 3 ml of scintillation fluid (ICN) was added. The incorporated radioactivity of [^3H]-thymidine uptake was quantitated in a scintillation counter (Packard, Meriden Conn.). The data were expressed as fold induction, which was calculated by dividing stimulated samples by the buffer control. Each condition was assayed triplicate, and the mean±standard deviation (SD) was obtained.

Row | Substance | tyrosine phosphorylation of the βPDGFR (βPDGFR) | tyrosine phosphorylation of the αPDGFR (αPDGFR) | TGFβ-induced contraction (FCX^2, Fα and Fβ cells) | PDGF-dependent activation of Erk (Erk) | basal or PDGF-stimulated tyrosine phosphorylation of the mutant receptor (human αPDGFR) | kinase activity towards exogenous substrate GST-PLCγ (GST-PLCγ) | [3H]-thymidine incorporation in response to serum (NIH 3T3 cells)
1 | TGFβ: recombinant human TGFβ1 purchased from R & D systems | very modest or undetectable tyrosine phosphorylation | increased phosphorylation of the αPDGFR | induced contraction of the Fα cells to a much greater extent than either the Fβ cells or the cells that do not express any PDGFR | – | – | – | –
2 | D818N: human αPDGFR point mutant, aspartic acid at position 818 changed to asparagine; SEQ ID NO: 8 | – | – | – | failed to fully activated Erk | no detectable | not phosphorylated | –
3 | V859M: human αPDGFR point mutant, valine at position 859 changed to methionine; SEQ ID NO: 10 | – | – | – | – | – | more active than the WT receptor | somewhat elevated response to serum
